Measured values taken from patent US20220249640A1 (published 2022).

What was measured:
[1] = target: T1, PD-1 (soluble, biotinylated, on sensors or coated on plates) (human, UniProt Q15116 25-167, biotinylated (avi tag, Avidity's biotinylation kit) in the Octet assays); experiment: ELISA; constant antigen coating
[2] = target: T1, PD-1 (soluble, biotinylated, on sensors …); experiment: ELISA; variable antigen coating

T1 sequence (Q15116 25-167): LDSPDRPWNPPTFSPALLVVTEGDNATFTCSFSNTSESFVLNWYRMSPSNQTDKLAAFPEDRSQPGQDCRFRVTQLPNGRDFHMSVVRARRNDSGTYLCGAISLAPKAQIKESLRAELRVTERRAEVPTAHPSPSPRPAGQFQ

B1: P4-B3 IgG1 wild type monomer (antibody, V domains shown)
VH: QVQLVQSGGGLVQPGRSLRLSCAASGFTFDDYAMHWVRQAPGKGLEWVSGISWNSGSIGYADSVKGRFTVSRDNAKNSLYLQMNSLRAEDTAVYYCASDYGDKYYYYGMDVWGKGTTVTVSS
VL: QPGLTQPPSASGTPGQRVTISCSGSSSNIGSNTVNWYQQFPGKAPKLLIFNDNQRPSGVPDRFSASKSGTSASLAISGLQSEDEADYYCAAWDGGLNGRGVFGGGTKLTVLG
EC50 [1]: 0.0407 µg/mL
EC50 [2]: 0.514 µg/mL
